The target of the test is CO17 B NA (neuraminidase head of B/Colorado/06/2017, B/Victoria-lineage) (influenza B virus B/Colorado/06/2017). In words: cryo-EM structure.

With “CO17 B NA (neuraminidase head of B/Colorado/06/2017, B/Victoria-lineage) (domain or fragment)”, the stoichiometry N came to 4.

(Values after doi:10.1101/2024.11.26.625467.)
